Reference: article PMC3902948 (Nucleic Acids Research, 2013)
One block for each binder: values may come before it.

Target: Prp43-Strep (S. cerevisiae, UniProt P53131 1-767)
Assay: titration of the ATPase activity of Prp43

Chain of Prp43-Strep (P53131 whole entry): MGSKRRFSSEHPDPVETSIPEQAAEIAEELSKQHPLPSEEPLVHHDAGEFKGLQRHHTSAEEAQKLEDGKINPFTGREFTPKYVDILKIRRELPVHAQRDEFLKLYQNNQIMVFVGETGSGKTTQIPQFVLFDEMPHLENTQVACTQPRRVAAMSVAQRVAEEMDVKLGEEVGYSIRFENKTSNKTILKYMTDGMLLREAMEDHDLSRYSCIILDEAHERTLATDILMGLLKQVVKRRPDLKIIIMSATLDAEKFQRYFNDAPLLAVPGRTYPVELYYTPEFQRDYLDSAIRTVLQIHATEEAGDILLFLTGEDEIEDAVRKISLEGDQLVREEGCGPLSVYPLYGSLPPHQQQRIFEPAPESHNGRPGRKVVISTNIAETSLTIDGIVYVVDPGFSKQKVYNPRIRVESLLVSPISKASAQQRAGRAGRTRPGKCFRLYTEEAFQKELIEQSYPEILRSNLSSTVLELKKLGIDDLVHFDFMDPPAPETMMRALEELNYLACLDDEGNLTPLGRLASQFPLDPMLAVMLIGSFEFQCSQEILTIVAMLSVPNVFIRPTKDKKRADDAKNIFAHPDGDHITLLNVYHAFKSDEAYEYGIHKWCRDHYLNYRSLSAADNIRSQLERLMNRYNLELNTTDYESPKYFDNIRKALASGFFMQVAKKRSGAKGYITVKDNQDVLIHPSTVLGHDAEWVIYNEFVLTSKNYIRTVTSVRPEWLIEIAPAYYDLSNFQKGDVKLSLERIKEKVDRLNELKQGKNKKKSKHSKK

Kd: 1490 ± 50 nM
B1: Strep-Ntr1(1–120) (domain or fragment, S. cerevisiae, UniProt Q06411 1-120, looked up)
chain: MEDSDSNTDKKFFFKKRRIDSYNYSDEEDNNSSMNSDMTYTNDALKTSSGNAPTISKLTKTYGIGAKLLSSMGYVAGKGLGKDGSGITTPIETQSRPMHNAGLGMFSNTNSSNYHSENED

Kd: 2240 ± 110 nM
B2: Ntr1(51–110) (domain or fragment, S. cerevisiae, UniProt Q06411 51-110, looked up)
chain: NAPTISKLTKTYGIGAKLLSSMGYVAGKGLGKDGSGITTPIETQSRPMHNAGLGMFSNTN
